Oligonucleotides are written 5' to 3', each unit as a sugar letter and its base; * is a phosphorothioate linkage, no mark a phosphodiester; rarer units and linkages stand in square brackets, end groups in braces. Plain capitals give the bases only. m = 2'-O-methyl; r = 2'-OH (RNA)
Assays:
[1] = system: B2M, TRAC, TRBC1/2, CIITA; test: NGS editing profile of T cells with BC22n or Cas9 mRNA, single or four guides, LNP titration, Example 16A; type: cell-based, human; conditions: LNP;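 also: activated T cells exposed to LNPs 72 h after activation, kept at 37 °C, harvested on day 10 post activation, editing measured by NGS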
B2M, CD3, MHC II = test: Flow cytometry of antigen negative T cells (B2M, CD3, MHC II) after BC22n or Cas9 editing, Example 16A; type: cell-based, human
Excerpt: Cells were subsequently washed, processed on a Cytoflex instrument (Beckman Coulter) and analyzed using the FlowJo software package. T cells were gated based on size, shape, viability, and antigen expression.

[2] = multiple guide delivery (four guides simultaneously), locus of the guide assayed, editor BC22n, total RNA 8.6 ng
[3] = multiple guide delivery (four guides simultaneously), locus of the guide assayed, editor BC22n, total RNA 17.2 ng
[4] = multiple guide delivery (four guides simultaneously), locus of the guide assayed, editor BC22n, total RNA 34.4 ng
[5] = multiple guide delivery (four guides simultaneously), locus of the guide assayed, editor BC22n, total RNA 68.8 ng
[6] = multiple guide delivery (four guides simultaneously), locus of the guide assayed, editor BC22n, total RNA 137.5 ng
[7] = multiple guide delivery (four guides simultaneously), locus of the guide assayed, editor BC22n, total RNA 275.0 ng
[8] = multiple guide delivery (four guides simultaneously), locus of the guide assayed, editor BC22n, total RNA 550.0 ng
[9] = multiple guide delivery (four guides simultaneously), locus of the guide assayed, editor Cas9, total RNA 8.6 ng
[10] = multiple guide delivery (four guides simultaneously), locus of the guide assayed, editor Cas9, total RNA 17.2 ng
[11] = multiple guide delivery (four guides simultaneously), locus of the guide assayed, editor Cas9, total RNA 34.4 ng
[12] = multiple guide delivery (four guides simultaneously), locus of the guide assayed, editor Cas9, total RNA 68.8 ng
[13] = multiple guide delivery (four guides simultaneously), locus of the guide assayed, editor Cas9, total RNA 137.5 ng
[14] = multiple guide delivery (four guides simultaneously), locus of the guide assayed, editor Cas9, total RNA 275.0 ng
[15] = multiple guide delivery (four guides simultaneously), locus of the guide assayed, editor Cas9, total RNA 550.0 ng
[16] = single guide delivery, editor BC22n, total RNA 8.6 ng
[17] = single guide delivery, editor BC22n, total RNA 17.2 ng
[18] = single guide delivery, editor BC22n, total RNA 34.4 ng
[19] = single guide delivery, editor BC22n, total RNA 68.8 ng
[20] = single guide delivery, editor BC22n, total RNA 137.5 ng
[21] = single guide delivery, editor BC22n, total RNA 275.0 ng
[22] = single guide delivery, editor BC22n, total RNA 550.0 ng
[23] = single guide delivery, editor Cas9, total RNA 8.6 ng
[24] = single guide delivery, editor Cas9, total RNA 17.2 ng
[25] = single guide delivery, editor Cas9, total RNA 34.4 ng
[26] = single guide delivery, editor Cas9, total RNA 68.8 ng
[27] = single guide delivery, editor Cas9, total RNA 137.5 ng
[28] = single guide delivery, editor Cas9, total RNA 275.0 ng
[29] = single guide delivery, editor Cas9, total RNA 550.0 ng

B1: G018117: guide targeting CIITA (SEQ ID NO: 714) (nucleic acid)
guide: mG*mC*mG*rUrCrCrArCrArUrCrCrUrGrCrArArGrGrGrGrUrUrUrUrArGrAmGmCmUmAmGmAmAmAmUmAmGmCrArArGrUrUrArArArArUrArArGrGrCrUrArGrUrCrCrGrUrUrArUrCrAmAmCmUmUmGmAmAmAmAmAmGmUmGmGmCmAmCmCmGmAmGmUmCmGmGmUmGmCmU*mU*mU*mU
B1 was tested, and the C-to-A/G % mean [1, 2] was 3.1%, the C-to-T % mean [1, 2] was 4.6% and the Indel % mean [1, 2] was 0.8%. The C-to-A/G % mean [1, 3] was 2.9%, the C-to-T % mean [1, 3] was 10.5% and the Indel % mean [1, 3] was 1.1%. It also gave a C-to-A/G % mean [1, 4] of 2.9%, a C-to-T % mean [1, 4] of 18.8% and an Indel % mean [1, 4] of 1.6%. For the same molecule, the C-to-A/G % mean [1, 5] was 2.7%, the C-to-T % mean [1, 5] was 35.1% and the Indel % mean [1, 5] was 1.6%. The C-to-A/G % mean [1, 6] was 2.9%, the C-to-T % mean [1, 6] was 52.9% and the Indel % mean [1, 6] was 1.5%. For the same molecule, the C-to-A/G % mean [1, 7] was 2.5%, the C-to-T % mean [1, 7] was 71.9% and the Indel % mean [1, 7] was 1.3%. For the same molecule, the C-to-A/G % mean [1, 8] was 2.6%, the C-to-T % mean [1, 8] was 81.1% and the Indel % mean [1, 8] was 1.1%. The C-to-A/G % mean [1, 9] was 2.6%, the C-to-T % mean [1, 9] was 0.2% and the Indel % mean [1, 9] was 1.4%. For the same molecule, the C-to-A/G % mean [1, 10] was 2.5%, the C-to-T % mean [1, 10] was 0.2% and the Indel % mean [1, 10] was 2.1%. The C-to-A/G % mean [1, 11] was 2.5%, the C-to-T % mean [1, 11] was 0.3% and the Indel % mean [1, 11] was 3.9%. It also gave a C-to-A/G % mean [1, 12] of 2.5%, a C-to-T % mean [1, 12] of 0.2% and an Indel % mean [1, 12] of 7.7%. It also gave a C-to-A/G % mean [1, 13] of 2.2%, a C-to-T % mean [1, 13] of 0.2% and an Indel % mean [1, 13] of 13.3%. The C-to-A/G % mean [1, 14] was 1.9%, the C-to-T % mean [1, 14] was 0.1% and the Indel % mean [1, 14] was 26.7%. It also gave a C-to-A/G % mean [1, 15] of 1.7%, a C-to-T % mean [1, 15] of 0.1% and an Indel % mean [1, 15] of 42.3%. The C-to-A/G % mean [1, 16] was 3.8%, the C-to-T % mean [1, 16] was 14.5% and the Indel % mean [1, 16] was 3.5%. The C-to-A/G % mean [1, 17] was 3.5%, the C-to-T % mean [1, 17] was 28.1% and the Indel % mean [1, 17] was 3.9%. It also gave a C-to-A/G % mean [1, 18] of 3.3%, a C-to-T % mean [1, 18] of 45.9% and an Indel % mean [1, 18] of 3.6%. The C-to-A/G % mean [1, 19] was 3.6%, the C-to-T % mean [1, 19] was 62.8% and the Indel % mean [1, 19] was 3.7%. For the same molecule, the C-to-A/G % mean [1, 20] was 2.7%, the C-to-T % mean [1, 20] was 78.9% and the Indel % mean [1, 20] was 2.7%. The C-to-A/G % mean [1, 21] was 2.6%, the C-to-T % mean [1, 21] was 86.3% and the Indel % mean [1, 21] was 2.0%. It also gave a C-to-A/G % mean [1, 22] of 2.6%, a C-to-T % mean [1, 22] of 92.3% and an Indel % mean [1, 22] of 1.1%. It also gave a C-to-A/G % mean [1, 23] of 2.5%, a C-to-T % mean [1, 23] of 0.3% and an Indel % mean [1, 23] of 6.0%. The C-to-A/G % mean [1, 24] was 2.4%, the C-to-T % mean [1, 24] was 0.2% and the Indel % mean [1, 24] was 11.2%. It also gave a C-to-A/G % mean [1, 25] of 2.1%, a C-to-T % mean [1, 25] of 0.2% and an Indel % mean [1, 25] of 20.8%. It also gave a C-to-A/G % mean [1, 26] of 1.9%, a C-to-T % mean [1, 26] of 0.2% and an Indel % mean [1, 26] of 33.2%. It also gave a C-to-A/G % mean [1, 27] of 1.3%, a C-to-T % mean [1, 27] of 0.1% and an Indel % mean [1, 27] of 51.2%. It also gave a C-to-A/G % mean [1, 28] of 0.9%, a C-to-T % mean [1, 28] of 0.1% and an Indel % mean [1, 28] of 64.5%. For the same molecule, the C-to-A/G % mean [1, 29] was 0.6%, the C-to-T % mean [1, 29] was 0.1% and the Indel % mean [1, 29] was 78.4%. For the same molecule, the “percent cells negative for antigen, HLA DR DP DQ neg, Mean %” value (shortened to “percent cells negative … Mean %”) (B2M, CD3, MHC II; editor BC22n, total RNA 8.6 ng) was 41.6%, the “percent cells negative … Mean %” value (B2M, CD3, MHC II; editor BC22n, total RNA 17.2 ng) was 49.9% and the “percent cells negative … Mean %” value (B2M, CD3, MHC II; editor BC22n, total RNA 34.4 ng) was 65.8%. For the same molecule, the “percent cells negative … Mean %” value (B2M, CD3, MHC II; editor BC22n, total RNA 68.8 ng) was 74.5%, the “percent cells negative … Mean %” value (B2M, CD3, MHC II; editor BC22n, total RNA 137.5 ng) was 85.2% and the “percent cells negative … Mean %” value (B2M, CD3, MHC II; editor BC22n, total RNA 275.0 ng) was 92.5%. The “percent cells negative … Mean %” value (B2M, CD3, MHC II; editor BC22n, total RNA 550.0 ng) was 95.7%, the “percent cells negative … Mean %” value (B2M, CD3, MHC II; editor Cas9, total RNA 8.6 ng) was 34.2% and the “percent cells negative … Mean %” value (B2M, CD3, MHC II; editor Cas9, total RNA 17.2 ng) was 36.2%. The “percent cells negative … Mean %” value (B2M, CD3, MHC II; editor Cas9, total RNA 34.4 ng) was 40.7%, the “percent cells negative … Mean %” value (B2M, CD3, MHC II; editor Cas9, total RNA 68.8 ng) was 48.9% and the “percent cells negative … Mean %” value (B2M, CD3, MHC II; editor Cas9, total RNA 137.5 ng) was 55.5%. The “percent cells negative … Mean %” value (B2M, CD3, MHC II; editor Cas9, total RNA 275.0 ng) was 65.6% and the “percent cells negative … Mean %” value (B2M, CD3, MHC II; editor Cas9, total RNA 550.0 ng) was 72.0%.

Reference: patent US20230183753A1, “Methods of in Vitro Cell Delivery” (Intellia Therapeutics, Inc., priority 2020, published 2023)
